{"source": "paper PMC11189300", "about": "(2024)", "parents": {"B1": {"name": "KNL1 residues 2,026–2,342 [human] / Mis12 complex (Mis12C), full length: MIS12, PMF1, NSL1, DSN1 [human] (parent complex)", "chain 1": "SAQNEREKLQIKIDEMDKILKKIDNCLTEMETETKNLEDEEKNNPVEEWDSEMRAAEKELEQLKTEEEELQRNLLELEVQKEQTLAQIDFMQKQRNRTEELLDQLSLSEWDVVEWSDDQAVFTFVYDTIQLTITFEESVVGFPFLDKRYRKIVDVNFQSLLDEDQAPPSSLLVHKLIFQYVEEKESWKKTCTTQHQLPKMLEEFSLVVHHCRLLGEEIEYLKRWGPNYNLMNIDINNNELRLLFSSSAAFAKFEITLFLSAYYPSVPLPSTIQNHVGNTSQDDIATILSKVPLENNYLKNVVKQIYQDLFQDCHFYH", "chain 2": "MSVDPMTYEAQFFGFTPQTCMLRIYIAFQDYLFEVMQAVEQVILKKLDGIPDCDISPVQIRKCTEKFLCFMKGHFDNLFSKMEQLFLQLILRIPSNILLPEDKCKETPYSEEDFQHLQKEIEQLQEKYKTELCTKQALLAELEEQKIVQAKLKQTLTFFDELHNVGRDHGTSDFRESLVSLVQNSRKLQNIRDNVEKESKRLKIS", "chain 3": "MAEASSANLGSGCEEKRHEGSSSESVPPGTTISRVKLLDTMVDTFLQKLVAAGSYQRFTDCYKCFYQLQPAMTQQIYDKFIAQLQTSIREEISDIKEEGNLEAVLNALDKIVEEGKVRKEPAWRPSGIPEKDLHSVMAPYFLQQRDTLRRHVQKQEAENQQLADAVLAGRRQVEELQLQVQAQQQAWQALHREQRELVAVLREPE", "chain 4": "MAGSPELVVLDPPWDKELAAGTESQALVSATPREDFRVRCTSKRAVTEMLQLCGRFVQKLGDALPEEIREPALRDAQWTFESAVQENISINGQAWQEASDNCFMDSDIKVLEDQFDEIIVDIATKRKQYPRKILECVIKTIKAKQEILKQYHPVVHPLDLKYDPDPAPHMENLKCRGETVAKEISEAMKSLPALIEQGEGFSQVLRMQPVIHLQRIHQEVFSSCHRKPDAKPENFITQIETTPTETASRKTSDMVLKRKQTKDCPQRKWYPLRPKKINLDT", "chain 5": "MTSVTRSEIIDEKGPVMSKTHDHQLESSLSPVEVFAKTSASLEMNQGVSEERIHLGSSPKKGGNCDLSHQERLQSKSLHLSPQEQSASYQDRRQSWRRASMKETNRRKSLHPIHQGITELSRSISVDLAESKRLGCLLLSSFQFSIQKLEPFLRDTKGFSLESFRAKASSLSEELKHFADGLETDGTLQKCFEDSNGKASDFSLEASVAEMKEYITKFSLERQTWDQLLLHYQQEAKEILSRGSTEAKITEVKVEPMTYLGSSQNEVLNTKPDYQKILQNQSKVFDCMELVMDELQGSVKQLQAFMDESTQCFQKVSVQLGKRSMQQLDPSPARKLLKLQLQNPPAIHGSGSGSCQ"}}}
{"variants_of": "B1", "experiment": "ITC; syringe KNL1^WT; cell Mis12C^M1; parent: -12"}
{"variant": "chain 3 R195A, chain 3 V198L, chain 5 L290F", "dG": -10}
{"variants_of": "B1", "experiment": "ITC; syringe KNL1^M1; cell Mis12C^WT; parent: 1.56 nM", "units": {"Kd": "nM"}}
{"variant": "chain 1 M231A, chain 1 S247W, chain 1 F250A, chain 1 K252A", "Kd": 140}
{"variants_of": "B1", "experiment": "ITC; syringe KNL1^M2; cell Mis12C^WT; parent: 1.56 nM", "units": {"Kd": "nM"}}
{"variant": "chain 1 M231A, chain 1 S247W, chain 1 F250A, chain 1 K252E", "Kd": 109}
{"variants_of": "B1", "experiment": "ITC; syringe KNL1^WT; cell Mis12C^M2; parent: 1.56 nM", "units": {"Kd": "nM"}}
{"variant": "chain 3 R195E, chain 3 V198L, chain 5 L290F", "Kd": 24.8}
